Results on two molecules are retold here after patent publication US20160272707A1 (COMPUGEN, published 2016).

For assay [1], the target named is T1, VSTM5 monomer (UniProt A8MXK1 29-147, limits assumed).
T1 construct: also called monomeric VSTM5 antigen; VSTM5 antigen
T1 sequence (looked up): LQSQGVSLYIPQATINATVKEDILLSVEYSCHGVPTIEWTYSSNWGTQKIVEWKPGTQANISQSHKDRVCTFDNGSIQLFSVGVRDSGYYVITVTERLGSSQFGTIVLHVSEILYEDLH
The assay can be described thus: SPR, VSTM5 monomer binding to the IgG. For orientation: Surface plasmon resonance follows binding to a sensor surface in real time, without labels.

Assay [2] addresses T2, mouse VSTM5 (SEQ ID NO:11) expressed on HEK-293T cells (mouse, UniProt Q9D806 28-199).
T2 construct: also called mouse VSTM5 untagged
T2 sequence: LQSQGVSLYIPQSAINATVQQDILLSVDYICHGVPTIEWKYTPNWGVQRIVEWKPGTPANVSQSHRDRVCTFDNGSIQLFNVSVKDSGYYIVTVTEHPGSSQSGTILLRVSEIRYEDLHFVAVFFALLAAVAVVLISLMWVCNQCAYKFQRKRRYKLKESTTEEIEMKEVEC
The assay can be described thus: FACS, IgG1 at 22 nM on 293-muVSTM5 cells; grade from ratio to 293-MT control cells (50-400). On the technique in general: A flow cytometer gives signals particle by particle.

The target in assay [3] is T3, human VSTM5-EGFP (SEQ ID NO:133) expressed on HEK-293 cells (human).
T3 construct: Full-length human VSTM5 fused at its C-terminus to EGFP; also called VSTM5_GFP
Kind of assay: FACS, IgG1 at 22 nM on 293-huVSTM5 (VSTM5-EGFP) cells; grade from ratio to 293-MT control cells (50-400).

Assay [4] deals with T1, VSTM5 monomer. The assay can be described thus: SPR, VSTM5 monomer binding to the IgG (equilibrium binding constant).
The target of assay [5] is T3, human VSTM5-EGFP (SEQ ID NO:133) …. Kind of assay: FACS titration of the human IgG1 on 293-huVSTM5 cells, 293-MT control cells as open squares; y axis MFI (anti-Human A647).
The target in assay [6] is T2, mouse VSTM5 (SEQ ID NO:11) expressed on …. Kind of assay: FACS, IgG1 at 22 nM on 293-muVSTM5 cells; grade from ratio to 293-MT control cells (850-2000).
Assay [7] has as its target T4, VSTM5-ECD-Ig H:H (human VSTM5 ECD fused to human IgG1 Fc, SEQ ID NO:130) (human).
T4 construct: also called VSTM5-ECD-Ig fusion protein; VSTM5HH
Kind of assay: FACS of tosyl-activated beads coated with anti-CD3 and 0 to 320 ug/ml VSTM5-ECD-Ig, stained with Alexa 647 conjugated 53-01.B11. As for the experimental part:
Tosyl activated beads (Invitrogen, Cat#14013) at 500×10⁶/ml were coated with anti-CD3 mAb and Fc fusion proteins in a two-step protocol: with 50 ug/ml human anti-CD3 clone UTCH1 (R&D systems, Cat# mab 100) in sodium phosphate buffer at 37° C. overnight, followed with 0-320 ug/ml of VSTM5-ECD-Ig fusion protein (human ECD of VSTM5 fused with Fc of human IgG1) for another overnight incubation at 37° C. In the second step, control human Fc was added together with Fc fusion protein so that the total amount of protein is 160 ug/ml (Bioxcell, Cat# BE0096) for the 0, 20, 40, 80 and 160 ug/ml coating condition (except for the 320 ug/ml coating condition).
The amount of anti-CD3 antibody bound to the beads was analyzed using goat anti-mouse 647 (Jackson ImmunoResearch, Cat#115-606-146).

The target in assay [8] is T3, human VSTM5-EGFP (SEQ ID NO:133) …. The assay can be described thus: FACS, IgG1 at 22 nM on 293-huVSTM5 (VSTM5-EGFP) cells; grade from ratio to 293-MT control cells (850-2000).
Assay [9] addresses T2, mouse VSTM5 (SEQ ID NO:11) expressed on …. The assay can be described thus: FACS titration of the human IgG1 on 293-muVSTM5 cells, panel 'Ab binding vs. mouse VSTM5'; y axis MFI (anti-Human A647).
Assay [10] has as its target T5, human VSTM5 (SEQ ID NO:132) expressed on HEK-293T cells (human, UniProt A8MXK1 29-200).
T5 construct: For the western blot, whole cell extracts were used; no signal peptide limits are stated; also called human VSTM5 untagged; HEK293T recombinant cells expressing human VSTM5
T5 sequence: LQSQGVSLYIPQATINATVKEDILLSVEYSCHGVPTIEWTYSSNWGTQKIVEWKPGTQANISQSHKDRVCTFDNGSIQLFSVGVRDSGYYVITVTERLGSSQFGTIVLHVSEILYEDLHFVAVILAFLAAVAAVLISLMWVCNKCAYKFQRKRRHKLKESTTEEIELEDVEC
Kind of assay: flow cytometry on HEK293T cells expressing untagged human VSTM5; antibody at 1 nM (0.15 ug/ml), PE goat anti-human secondary 1:200. The text has this: To verify the cell-surface expression of human VSTM5 in HEK293T recombinant cells (FIG. 8C), cells expressing the protein were stained with monoclonal VSTM5 antibody (S53-01-B11, described in Example 12 and 13 herein) and appropriate Isotype control followed by Goat a human PE conjugated Ab (Cat#
Non expressing cell line (HEK293T_pIRESpuro3) was stained under the same conditions and used for a negative control.

In assay [11] the target is T6, VSTM5 on human peripheral blood leukocytes (Homo sapiens, UniProt A8MXK1).
T6 construct: full-length, cell surface, endogenous; also called endogenous human VSTM5
T6 sequence (membrane protein, looked up): T5 sequence
Kind of assay: FACS, AF647 conjugated antibody on red-cell-lysed human peripheral blood of 3 donors, Fc receptors blocked with human IgG, against Synagis AF647. As for the experimental part: Human peripheral blood was collected from 3 healthy donors. Red blood cells were lysed with RBC Lysis Buffer (eBiosciences Cat#00-4333-57) according to the manufacturer's protocol. Cells were incubated with 400 ug/ml human IgG (Jackson Immunoresearch #009-000-003) for 20 min on ice to block Fc receptors and then stained with cocktails consisting of Synagis® AF647, and anti-VSTM5 antibodies disclosed in Example 12, i.e., anti-VSTM5 AF647 (clone 44-2.E06 or 53-01.B11), anti-CD11b PE (Biolegend Cat#301305), anti-CD45 PerCp Cy5.5 (Biolegend #304207), anti-CD14 FITC (Biolegend cat#352610), or anti-CD41 PE (Biolegend Cat#303705) for 30 min on ice. All AF647 antibodies were conjugated at Compugen using Alexa Fluor® 647 Antibody Labeling Kit (Life Technologies Cat# A-20186) according to the manufacturer's protocol. Cells were washed twice with FACS Buffer (1% BSA, 0.1% Sodium Azide, PBS) and acquired on Intellicyte FACS machine. Data was analyzed by FlowJo and cell subsets defined as below: Monocytes: CD14⁺CD11b⁺, Neutrophils: CD11b⁺CD14^low, Lymphocytes FSC^lowSSC^lo, Eosinophils SSC^hi, platelets: CD45⁻CD41⁺. Staining of anti-VSTM5 antibodies to these cells was compared to staining with Synagis.

B1: 50-01.B01 (antibody, V domains shown)
VH: QVQLQESGPGLMKPSQTLSLTCTVSGDSITRGSSYWSWIRQSDGKGLEWIGHIYSGGDTDYNPALKSRVTISADASRGQFLLRLTSMTAADTAVYYCARDRGAYGMDVWGQGTTVTVSS
VL: QPVLTQSSSASASLGASVKLTCTLSSEHDRYAIAWLQQKPEKGPRYLMKVNSDGSHRKGDGIPDRFSGSSSGAERYLTISRLQSEDEADYYCQTWGIGIRVFGGGTQLTVLG
notes: also called 50-01.801
By Kd is commonly meant the equilibrium constant for the complex coming apart. A high value points to a looser complex. For B1, the dissociation constant Kd in [1] and in [4] was 657 nM each time. Further, the “ratio of 293-muVSTM5 cell binding / 293-MT control cell binding (FACS) at 22 nM mAb” value in [2] was in the range of 50 to 400 ratio. Also, the “ratio of 293-huVSTM5 cell binding / 293-MT control cell binding (FACS) at 22 nM mAb” value in assay [3] was in the range of 50 to 400 ratio.

B2: 53-01.B11 (antibody, V domains shown)
VH: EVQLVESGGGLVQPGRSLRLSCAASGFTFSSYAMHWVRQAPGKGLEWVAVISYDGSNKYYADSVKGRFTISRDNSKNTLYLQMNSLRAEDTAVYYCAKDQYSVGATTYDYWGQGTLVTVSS
VL: QPVLTQSSSASASLGASVKLTCSLSSGHSSYAIAWHQQQPEKGPRYLMKLNSDGSHSKGDGIPDRFSGSSSGAERYLTISSLQSEDEADYYCQTWGSGIQVFGGGTKLTVLG
notes: also called S53-01-B11; S53-01.B11
By EC50 (read off the curve) is commonly meant the concentration at which the effect is half-maximal. Read a low EC50 (read off the curve) as an effect from little substance. Consider B2, for which the 50% effective concentration (EC50 (read off the curve)) in [5] was roughly 3 nM; in [9], roughly 2 nM. Moreover, the “ratio of 293-muVSTM5 cell binding / 293-MT control cell binding (FACS) at 22 nM mAb” value in [6] was in the range of 850 to 2000 ratio. The binding result in assay [7], in assay [10] and in assay [11] was “binds” in each case. The “ratio of 293-huVSTM5 cell binding / 293-MT control cell binding (FACS) at 22 nM mAb” value in assay [8] fell in the range of 850 to 2000 ratio.
